{
  "source": "paper PMC9913352",
  "about": "“The Rosetta Stone Hypothesis-Based Interaction of the Tumor Suppressor Proteins Nit1 and Fhit” (Cells, 2023)",
  "proteins": {"B1": {"name": "untagged human Fhit (natural protein)", "chain": "not shown", "notes": "Fhit (fragile histidine triad), human, 147 amino acids, ~17 kDa; also called fragile histidine triad"}},
  "target": "the molecule itself",
  "experiment": "SEC; untagged proteins after on-column TEV cleavage, Superdex 200-HR, 50 mM Tris/HCl pH 8.0, 100 mM NaCl, 2 mM MgCl2, 0.3 mL/min; calibrated with marker proteins",
  "data": [
    {"protein": "B1", "values": [
      {"measurement": "stoichiometry N", "value": 2}
    ]}
  ]
}
